The target of data set [1] is T1, Nectin-4 expressed by tumors and Nectin-4 expressed by human keratinocytes (Homo sapiens, UniProt Q96NY8).
T1 construct: Cells or cell lines (10,000-50,000) expressing Nectin-4 (naturally or transfected); endogenous in cells; host or cells: SUM190/SUM190PT (also SUM149 in IHC), NHEK differentiated with 0.1 mM CaCl2, human skin sections
T1 sequence (Q96NY8 32-510): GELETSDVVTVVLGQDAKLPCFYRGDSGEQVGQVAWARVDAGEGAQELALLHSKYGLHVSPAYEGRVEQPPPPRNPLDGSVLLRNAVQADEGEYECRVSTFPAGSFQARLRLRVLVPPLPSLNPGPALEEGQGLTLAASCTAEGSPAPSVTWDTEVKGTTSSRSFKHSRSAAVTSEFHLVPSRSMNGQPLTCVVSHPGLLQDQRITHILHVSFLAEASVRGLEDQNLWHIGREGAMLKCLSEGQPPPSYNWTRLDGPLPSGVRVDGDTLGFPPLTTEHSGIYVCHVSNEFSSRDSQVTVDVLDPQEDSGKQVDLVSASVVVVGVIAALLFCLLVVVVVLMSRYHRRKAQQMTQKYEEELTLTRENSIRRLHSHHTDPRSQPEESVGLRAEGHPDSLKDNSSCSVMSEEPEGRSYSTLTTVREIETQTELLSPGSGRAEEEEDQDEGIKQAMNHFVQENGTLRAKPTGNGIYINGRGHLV
In words: Differential binding to tumor cells and human keratinocytes. From the text:
FIG. 6: Differential binding to Nectin-4 expressed by tumor cell line and normal differentiated human keratinocytes. […] Cells were then stained with phycoerythrin conjugate goat anti human Fc antibody. Normalized mean fluorescence intensities are shown. Non-linear curve fitting (4 parameters) was done with GraphPad Prism 9 software. Horizontal bar is placed at 50% of maximum staining intensity obtained with HA22 antibody on SUM190 cells.
FIG. 7: Differential binding to Nectin-4 expressed by tumor cell line and normal differentiated human keratinocytes. Detection by flow cytometry. • Flow cytometry analysis of TNBC cell line (SUM190, A) and normal differentiated (0.1 mM CaCl2) human keratinocytes (NHEK, B) using 5 μg/mL of HA22 (Enfortumab), Ch-5A12.2, Ch-15A7.5, and Ch-8F06. Cells were then stained with phycoerythrin conjugate goat anti human Fc antibody. Normalized mean fluorescence intensities are shown.
FIG. 8: Differential binding to Nectin-4 expressed by tumor cell line and human keratinocytes. Detection by immuno-histochemistry. Cryo-preserved OCT-embedded blocks of high expressing levels of Nectin-4 tumor cell line (SUM190), low expressing levels of Nectin-4 tumor cell line (SUM149), human and cynomolgus skin were processed for staining with 15A7.5 mAb (A) and 9A2.7 mAb (B). Quick score reported for each mAb are shown (A, B). C, ratio of quick score SUM190 over human skin. […]
Remaining blocks were stored at −80° C. until further use. […] Several dilution of each mAb were tested to optimize noise to signal ratio and 0.5 μg/ml of mouse 15A7.5 mAb and 10 µg/mL of mouse 9A2.7 mAb were determined as optimal. […] Both the stained cells proportion and the staining intensity were evaluated for each field. […] Scoring procedure was as follows: (i) The proportion of cells stained positively was estimated and a score from 0 to 4 was be assigned for each field (0=0-5%; 1=5-25%; 2=25-50%; 3=50-75%; and 4=75-100%); and (ii) The staining intensity was scored as 0, 1, 2, or 3 corresponding to the presence of negative, weak, intermediate, and strong brown staining, respectively. […]

Data set [2] deals with SUM190PT cells and normal human differentiated keratinocytes. In words: Internalization assay with pHAB dye conjugates, tumor cell line and keratinocytes. In kind it is cell-based. To be noted: in vitro, in reference to HA22 mAb (Enfortumab). As for the experimental part: FIG. 9: Differential internalization in tumor cell line and human keratinocytes. Detection by fluorescence Enfortumab (HA22), Ch-15A7.5 and Isotypic control mAbs were coupled to pHAB thiol reactive dye to reach dye antibody ratio comprised between 4.58 and 5.55. A dose range of each of these antibody dye conjugates (1.6 ng/ml-5 μg/mL) was incubated in duplicates with SUM190PT Nectin-4-expressing cell line (A) normal human differentiated (0.1 mM CaCl2) keratinocytes (B). Intracellular fluorescence was recorded after 24 hours with florescence microplate reader (ClarioStar). Reported are the fluorescence intensities in function of dye antibody conjugate concentration.
Ten thousand SUM190PT or human differentiated keratinocytes (0.1 mM CaCl2) were seeded in 96-wells plates and subsequently incubated for 24 hours at 37° C., with a dose range (1.6 ng/ml-1 μg/mL) of anti Nectin-4 mAbs and isotypic control conjugated with pHAB thiol reactive dye. Upon internalization and endo-lysosomal processing, the acidic environment causes the dye to fluoresce. Fluorescence intensity was monitored on a plate reader with an excitation at 532 nm and an emission at 560 nm.
The thiol reactive dye pHAB (Promega) was conjugated to cysteine of selected anti-Nectin-4 ThiomAb (D265C, L234A, L235A) antibodies using maleimide chemistry according to manufacturer's instructions. […]

Data set [3] shares this test system. Format: cell-based. On the procedure: FIG. 10: Differential in vitro cytotoxic activity to tumor cells and normal differentiated human keratinocytes. […] Viability (MTT assay) after a 5-days incubation period is reported. EC50 values were determined by GraphPad Prism 9 software using non-linear curve fitting (4 parameters). […] Data shown is representative of 2 different Nectin-4 expressing tumor cell lines (SUM190PT and MDA-MB468) and 3 independent donors for human keratinocytes.
To analyze the in vitro cytotoxic activity of ADC, cell viability was assessed using the AlamarBlue staining protocol as recommended by the manufacturer (Biosource, CA, USA). The test incorporates a fluorescent oxidation-reduction indicator. Fluorescence intensity is proportional to cellular metabolic reduction. Experiments were done by incubating 3000 cells/well (SUM190PT or differentiated NHEK) in triplicate with serial dilutions of ADC at Day 0 in 96-wells plates. AlamarBlue was measured at Day 5 by incubating 1/10 volume of alamarBlue solution for 2 h at 37° C. and read at 595 nm (FLUOstar Optima, BMG Labtech).

A further data set in a line: In vivo half-life. The settings on record: due to a lower absorption rate in the skin.

B1: mAb 15A7.5: parental monoclonal anti-Nectin-4 antibody, CDRs SEQ ID NO: 1-12, VH/VL SEQ ID NO: 13/14 (antibody, V domains shown)
VH: EVKLVESGGGLVQPGGSRKLSCAASGFTFSNYGMAWVRQAPGKGPEWVAFISNLAYGINYADTVTGRFTISRENAKNTLYLEMRSLRSEDTAMYYCARGARATGWFAYWGQGTLVTVSA
VL: DIVMTQSQKFMSTSIGDRVSVTCKASQNVDTHVAWYQEKPGQSPKALIYSASYRYSGVPDRFTGSGSGTDFTLTISNVQSEDLADYFCQQYNSYPLTFGGGTKLEIK
modifications: VH_15A7.5; VK_15A7.5
With B1, the “affinity to Nectin-4 expressed by tumors in comparison to Nectin-4 expressed by human keratinocytes” value in data set [1] (in vitro differentiated Nectin-4 expressing keratinocytes) is “higher affinity”. The “binding affinity towards keratinocytes in comparison to tumor cells” value in data set [1] (in vitro, in reference to HA22 mAb (Enfortumab)) is recorded as “lower binding affinity”. Further, the “internalization towards keratinocytes in comparison to tumor cells” value in data set [2] is “lower”. For the same molecule, in data set [3], the “cytotoxic activity towards keratinocytes in comparison to tumor cells” value is reported as “lower”. The half-life entry in the data set “In vivo half-life” is on record as “higher half-life”.

The values are drawn from patent US20240173424A1, “ANTI-NECTIN-4-ANTIBODY EXATECAN CONJUGATES” (EMERGENCE THERAPEUTICS AG, priority 2021, published 2024).
